Data as given in publication PMC8034850, “A cell-based screening method using an intracellular antibody for discovering small molecules targeting the translocation protein LMO2” (Science Advances, 2021).
Numbering of substitutions follows the chain as printed. Names may count otherwise.

Tests used:
Assay type in all cases: cell-based
[1] = biological target: T1, LMO2-iDAb LMO2dm3 interaction (Homo sapiens, UniProt P25791); experiment: BRET competition / dose-response assay on LMO2-iDAb LMO2dm3; details: HEK-293T, HEK293T, Fig. 4C
T1 construct: LMO2 cDNA was cloned into the pEF-RLuc8-MCS and pEF-MCS-RLuc8 plasmids; expressed in transfected cells; host or cells: HEK293T
T1 sequence (P25791 1-158): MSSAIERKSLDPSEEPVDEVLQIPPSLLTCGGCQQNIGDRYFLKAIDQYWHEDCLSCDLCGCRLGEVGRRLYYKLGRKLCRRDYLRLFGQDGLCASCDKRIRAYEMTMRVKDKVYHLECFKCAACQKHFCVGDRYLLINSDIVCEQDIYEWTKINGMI
Description: (§1) For all BRET experiments (titration curves and competition assays), 650,000 HEK293T were seeded in each well of six-well plates. After 24 hours at 37°C, cells were transfected with a total of 1.6 μg of DNA mix, containing the donor + acceptor ± competitor plasmids, using Lipofectamine 2000 transfection reagent (Thermo Fisher Scientific). For the BRET donor saturation assays, cells were transfected with 0.05 μg of donor (LMO2) and with an increased amount of acceptor plasmid (0.025, 0.05, 0.1, 0.25, 0.5, 0.75, and/or 1 μg of DNA) equalized to a total amount of 1.6 μg of DNA with an empty vector pEF-cyto-myc. […] Cells were detached 24 hours later, washed with phosphate-buffered saline (PBS), and seeded in a white 96-well plate (clear bottom, PerkinElmer, catalog no. 6005181) in Opti-MEM without phenol red medium complemented with 4% FBS, and cells were incubated for an additional 20 to 24 hours at 37°C before the BRET assay reading. […]
(§2) BRET2 signal was determined immediately after injection of coelenterazine 400a substrate (10 μM final concentration) to cells (Cayman Chemicals) using a CLARIOstar instrument (BMG Labtech) with a luminescence module. Total GFP^2 fluorescence was detected with excitation and emission peaks set at 405 and 515 nm, respectively. Total RLuc8 luminescence was measured with the luminescence 400- to 700-nm wavelength filter. […]

[2] = biological target: T2, LMO2-LDB1 interaction (Homo sapiens, UniProt P25791); experiment: BRET assay on LMO2-LDB1; details: BRET competition, fig. S7E
T2 construct: LMO2 cDNA was cloned into the pEF-RLuc8-MCS and pEF-MCS-RLuc8 plasmids; expressed in transfected cells; host or cells: HEK293T
T2 sequence (P25791 1-158): T1 sequence (P25791 1-158)
Description: as §1, §2

[3] = biological target: T3, LMO2-TAL1 + E47 interaction (Homo sapiens, UniProt P25791); experiment: BRET assay on LMO2-TAL1 + E47; details: BRET competition, fig. S7D
T3 construct: LMO2 cDNA was cloned into the pEF-RLuc8-MCS and pEF-MCS-RLuc8 plasmids; expressed in transfected cells; host or cells: HEK293T
T3 sequence (P25791 1-158): T1 sequence (P25791 1-158)
Description: as §1, §2

[4] = biological target: T4, LMO2 (Homo sapiens, UniProt P25791); experiment: Single-dose BRET competition of LMO2-RLuc8 and GFP2-iDAb LMO2dmx by unmutated iDAb LMO2; details: lowest dose of competitor 0.1 μg, label = GFP2-iDAb acceptor, Fig. 2D
T4 construct: LMO2 cDNA was cloned into the pEF-RLuc8-MCS and pEF-MCS-RLuc8 plasmids; expressed in transfected cells; host or cells: HEK293T
T4 sequence (P25791 1-158): T1 sequence (P25791 1-158)

COc1ccc(CN2CCN(c3nc(C(=O)Nc4ccc(-n5cccc5)cc4)co3)CC2)cc1 [Abd-L19]
inhibition at 20 µM [1]: 45%

B1: iDAb LMO2: intracellular VH single domain antibody binding to LMO2 (antibody, V domains shown)
VH: EVQLLESGGGLVQPGGSLRLSCAASGFSFSHSPMNWVRQAPGKGLEWVSYISYNSSSIYYADSVKGRFTISRDNSKNTLYLQMNSLRAEDTAVYYCARGLTESLELTADWFDYWGQGTLVTVSS
effect of coexpressed nontagged iDAb on LMO2-LDB1 BRET signal [2]: inhibited BRET signal | effect of coexpressed nontagged iDAb on LMO2-TAL1 + E47 BRET signal [3]: inhibited BRET signal

B2: iDAb LMO2dm3: iDAb LMO2 mutant S28G, H31G, S55A, E102A, T107A, chosen for the screen (antibody, V domains shown)
VH: B1 VH with S28G, H31G, S55A, E102A, T107A
percentage inhibition by iDAb LMO2 compared to iDAb Ctl of the interaction of the labelled acceptor iDAb with LMO2 [4]: ~ 90%
